{
  "source": "patent US20140220596A1",
  "about": "(MEDICINAL BIOCONVERGENCE RESEARCH CENTER, published 2014)",
  "binders": {"B1": {"name": "CDH1 (Fc fusion, not shown: a dimerising Fc or GST; small tags and cut ends)", "chain": "DWVIPPISCPENEKGPFPKNLVQIKSNKDKEGKVFYSITGQGADTPPVGVFIIERETGWLKVTEPLDRERIATYTLFSHAVSSNGNAVEDPMEILITVTDQNDNKPEFTQEVFKGSVMEGALPGTSVMEVTATDADDDVNTYNAAIAYTILSQDPELPDKNMFTINRNTGVISVVTTGLDRESFPTYTLVVQAADLQGEGLSTTATAVITVTDTNDNPPIFNPTTYKGQVPENEANVVITTLKVTDADAPNTPAWEAVYTILNDDGGQFVVTTNPVNNDGILKTAKGLDFEAKQQYILHVAVTNVVPFEVSLTTSTATVTVDVLDVNEAPIFVPPEKRVEVSEDFGVGQEITSYTAQEPDTFMEQKITYRIWRDTANWLEINPDTGAISTRAELDREDFEHVKNSTYTALIIATDNGSPVATGTGTLLLILSDVNDNAPIPEPRTIFFCERNPKPQVINIIDADLPPNTSPFTAELTHGASANWTIQYNDPTQESIILKPKMALEVGDYKINLKLMDNQNKDQVTTLEVSVCDCEGAAGVCRKAQPVEAGLQIPA", "notes": "one of the remaining CDHs (group m5); also called Fc-CDH1; Fc-fused soluble cadherin-1"}, "B2": {"name": "CDH8 (Fc fusion, not shown: a dimerising Fc or GST; small tags and cut ends)", "chain": "GWVWNQMFVLEEFSGPEPILVGRLHTDLDPGSKKIKYILSGDGAGTIFQINDVTGDIHAIKRLDREEKAEYTLTAQAVDWETSKPLEPPSEFIIKVQDINDNAPEFLNGPYHATVPEMSILGTSVTNVTATDADDPVYGNSAKLVYSILEGQPYFSIEPETAIIKTALPNMDREAKEEYLVVIQAKDMGGHSGGLSGTTTLTVTLTDVNDNPPKFAQSLYHFSVPEDVVLGTAIGRVKANDQDIGENAQSSYDIIDGDGTALFEITSDAQAQDGIIRLRKPLDFETKKSYTLKVEAANVHIDPRFSGRGPFKDTATVKIVVEDADEPPVFSSPTYLLEVHENAALNSVIGQVTARDPDITSSPIRFSIDRHTDLERQFNINADDGKITLATPLDRELSVWHNITIIATEIRNHSQISRVPVAIKVLDVNDNAPEFASEYEAFLCENGKPGQVIQTVSAMDKDDPKNGHYFLYSLLPEMVNNPNFTIKKNEDNSLSILAKHNGFNRQKQEVYLLPIIISDSGNPPLSSTSTLTIRVCGCSNDGVVQSCNVEAYVLPIGLSM", "notes": "one of the remaining CDHs (group m5); also called Fc-CDH8; Fc-fused soluble cadherin-8"}, "B3": {"name": "CDH11 (Fc fusion, not shown: a dimerising Fc or GST; small tags and cut ends)", "chain": "GWVWNQFFVIEEYTGPDPVLVGRLHSDIDSGDGNIKYILSGEGAGTIFVIDDKSGNIHATKTLDREERAQYTLMAQAVDRDTNRPLEPPSEFIVKVQDINDNPPEFLHETYHANVPERSNVGTSVIQVTASDADDPTYGNSAKLVYSILEGQPYFSVEAQTGIIRTALPNMDREAKEEYHVVIQAKDMGGHMGGLSGTTKVTITLTDVNDNPPKFPQSVYQMSVSEAAVPGEEVGRVKAKDPDIGENGLVTYNIVDGDGMESFEITTDYETQEGVIKLKKPVDFETKRAYSLKVEAANVHIDPKFISNGPFKDTVTVKISVEDADEPPMFLAPSYIHEVQENAAAGTVVGRVHAKDPDAANSPIRYSIDRHTDLDRFFTINPEDGFIKTTKPLDREETAWLNITVFAAEIHNRHQEAKVPVAIRVLDVNDNAPKFAAPYEGFICESDQTKPLSNQPIVTISADDKDDTANGPRFIFSLPPEIIHNPNFTVRDNRDNTAGVYARRGGFSRQKQDLYLLPIVISDGGIPPMSSTNTLTIKVCGCDVNGALLSCNAEAYILNAGLST", "notes": "one of the remaining CDHs (group m5); also called Fc-CDH11; Fc-fused soluble cadherin-11"}, "B4": {"name": "CDH5 (Fc fusion, not shown: a dimerising Fc or GST; small tags and cut ends)", "chain": "DWIWNQMHIDEEKNTSLPHHVGKIKSSVSRKNAKYLLKGEYVGKVFRVDAETGDVFAIERLDRENISEYHLTAVIVDKDTGENLETPSSFTIKVHDVNDNWPVFTHRLFNASVPESSAVGTSVISVTAVDADDPTVGDHASVMYQILKGKEYFAIDNSGRIITITKSLDREKQARYEIVVEARDAQGLRGDSGTATVLVTLQDINDNFPFFTQTKYTFVVPEDTRVGTSVGSLFVEDPDEPQNRMTKYSILRGDYQDAFTIETNPAHNEGIIKPMKPLDYEYIQQYSFIVEATDPTIDLRYMSPPAGNRAQVIINITDVDEPPIFQQPFYHFQLKENQKKPLIGTVLAMDPDAARHSIGYSIRRTSDKGQFFRVTKKGDIYNEKELDREVYPWYNLTVEAKELDSTGTPTGKESIVQVHIEVLDENDNAPEFAKPYQPKVCENAVHGQLVLQISAIDKDITPRNVKFKFILNTENNFTLTDNHDNTANITVKYGQFDREHTKVHFLPVVISDNGMPSRTGTSTLTVAVCKCNEQGEFTFCEDMAAQVGVSIQ", "notes": "one of the remaining CDHs (group m5); also called Fc-CDH5; Fc-fused soluble cadherin-5"}},
  "biological_target": "T1, His-tagged recombinant human glycyl-tRNA synthetase (GRS), 685 amino acids (human, UniProt P41250 55-739)",
  "T1 construct": "Expressed in E. coli; also called His-GRS; his-tagged GRS; not shown: His tag from vector pET-28a (EcoRI/XhoI)",
  "T1 sequence": "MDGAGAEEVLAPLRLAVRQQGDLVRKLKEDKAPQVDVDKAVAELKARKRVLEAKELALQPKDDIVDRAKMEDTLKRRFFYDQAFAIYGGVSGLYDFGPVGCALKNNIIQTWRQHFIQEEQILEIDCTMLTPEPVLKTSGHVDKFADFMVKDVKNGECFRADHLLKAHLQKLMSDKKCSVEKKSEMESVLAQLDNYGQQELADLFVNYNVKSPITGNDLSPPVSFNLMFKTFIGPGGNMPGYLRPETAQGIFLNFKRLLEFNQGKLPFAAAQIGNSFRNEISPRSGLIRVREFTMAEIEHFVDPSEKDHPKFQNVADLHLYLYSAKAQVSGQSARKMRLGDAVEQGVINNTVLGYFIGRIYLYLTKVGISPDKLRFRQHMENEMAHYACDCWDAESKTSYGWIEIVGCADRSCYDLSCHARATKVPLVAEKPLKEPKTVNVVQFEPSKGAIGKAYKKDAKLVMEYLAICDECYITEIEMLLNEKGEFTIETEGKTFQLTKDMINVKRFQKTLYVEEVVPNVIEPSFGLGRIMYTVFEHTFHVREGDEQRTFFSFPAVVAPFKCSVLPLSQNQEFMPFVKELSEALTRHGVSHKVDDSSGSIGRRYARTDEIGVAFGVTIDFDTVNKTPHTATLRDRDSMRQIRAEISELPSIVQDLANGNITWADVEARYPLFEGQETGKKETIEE",
  "assay": "ELISA: plate coated with His-GRS or BSA, Fc-fused cadherin added, detected with anti-human IgG1 Fc-HRP; axis OD 490nm",
  "procedure": "(A) A panel of Fc-fused soluble cadherin family proteins was bound to His-tagged GRS or to BSA-coated plates, and complexes were detected with the IgG1 Fc-HRP (Thermo) reagent. (B) To confirm the binding between cadherins and GRS, Fc-CDH2, 6 and 18 were incubated with His-GRS. Fc-CDHs were precipitated with protein A/G agarose and co-precipitated GRS was determined by immunoblotting. (C) To calculate the equilibrium dissociation constant (IQ), immobilized Fc-fused (to gold chips) cadherins were incubated with GRS (31.25 nM˜1 uM). Binding of GRS to CDH6 was determined by surface plasmon resonance and expressed as resonance units (RU). (D) To confirm the binding between CDH6 and GRS domain peptides, Fc-CDH6 was incubated with different domains (F1, 2, 3 and 4) of GRS that were expressed as the GST fusion proteins. GST-GRS proteins were precipitated with GSH-sepharose beads and co-precipitated CDH6 was determined by immunoblotting. (E) Five difference cancers cells were determined for the expression of CDH6 by immunoblotting. (F) HCT116 cells were transfected with non-specific siRNA controls (si-con) or two differently designed siRNAs targeting CDH6 (#1 and #2), treated with biotinylated GRS (15 nM), and the binding of GRS was analyzed by immunoblotting. (G) HCT116 cells were transfected with si-con and si-CDH6 as described above, and cell binding of GRS was measured by FACS analysis. (H) HCT116 cells were incubated with His-GRS (150 nM). To neutralize the effects of GRS, Fc-fused CDH6 (300 nM) was added and the cell viability was determined by the MTT assay. Error bars represent standard deviation. (I) The binding between CDH6 and GRS domain peptides was again confirmed by ELISA assay.\nTo identifying the receptor of GRS, a Maxisorp plate (Nunc, Rochester, N.Y.) was used for an ELISA detection. The plate were coated with purified his-tagged GRS (1 ug/ml) or BSA (1 ug/ml) in phosphate buffer saline and then blocked (PBS, 4% non-fat milk). Fc-fusion cadherin family proteins (1 ug/ml) were added to the plate and after washing with PBST (0.05% Tween20), the plates were incubated with anti-human IgG1 Fc-HRP (Thermo, Waltham, Mass.). […]",
  "data": [
    {"binder": "B1", "values": [
      {"measurement": "binding result", "value": "no binding (tested: 1 ug/ml (single concentration))"}
    ]},
    {"binder": "B2", "values": [
      {"measurement": "binding result", "value": "no binding (tested: 1 ug/ml (single concentration))"}
    ]},
    {"binder": "B3", "values": [
      {"measurement": "binding result", "value": "no binding (tested: 1 ug/ml (single concentration))"}
    ]},
    {"binder": "B4", "values": [
      {"measurement": "binding result", "value": "no binding (tested: 1 ug/ml (single concentration))"}
    ]}
  ]
}
